From article PMC4174979

Target: WRN_(235–526) (human)
Test: SEC

Sequence of WRN_(235–526) (domain or fragment) (Q14191 2-1432): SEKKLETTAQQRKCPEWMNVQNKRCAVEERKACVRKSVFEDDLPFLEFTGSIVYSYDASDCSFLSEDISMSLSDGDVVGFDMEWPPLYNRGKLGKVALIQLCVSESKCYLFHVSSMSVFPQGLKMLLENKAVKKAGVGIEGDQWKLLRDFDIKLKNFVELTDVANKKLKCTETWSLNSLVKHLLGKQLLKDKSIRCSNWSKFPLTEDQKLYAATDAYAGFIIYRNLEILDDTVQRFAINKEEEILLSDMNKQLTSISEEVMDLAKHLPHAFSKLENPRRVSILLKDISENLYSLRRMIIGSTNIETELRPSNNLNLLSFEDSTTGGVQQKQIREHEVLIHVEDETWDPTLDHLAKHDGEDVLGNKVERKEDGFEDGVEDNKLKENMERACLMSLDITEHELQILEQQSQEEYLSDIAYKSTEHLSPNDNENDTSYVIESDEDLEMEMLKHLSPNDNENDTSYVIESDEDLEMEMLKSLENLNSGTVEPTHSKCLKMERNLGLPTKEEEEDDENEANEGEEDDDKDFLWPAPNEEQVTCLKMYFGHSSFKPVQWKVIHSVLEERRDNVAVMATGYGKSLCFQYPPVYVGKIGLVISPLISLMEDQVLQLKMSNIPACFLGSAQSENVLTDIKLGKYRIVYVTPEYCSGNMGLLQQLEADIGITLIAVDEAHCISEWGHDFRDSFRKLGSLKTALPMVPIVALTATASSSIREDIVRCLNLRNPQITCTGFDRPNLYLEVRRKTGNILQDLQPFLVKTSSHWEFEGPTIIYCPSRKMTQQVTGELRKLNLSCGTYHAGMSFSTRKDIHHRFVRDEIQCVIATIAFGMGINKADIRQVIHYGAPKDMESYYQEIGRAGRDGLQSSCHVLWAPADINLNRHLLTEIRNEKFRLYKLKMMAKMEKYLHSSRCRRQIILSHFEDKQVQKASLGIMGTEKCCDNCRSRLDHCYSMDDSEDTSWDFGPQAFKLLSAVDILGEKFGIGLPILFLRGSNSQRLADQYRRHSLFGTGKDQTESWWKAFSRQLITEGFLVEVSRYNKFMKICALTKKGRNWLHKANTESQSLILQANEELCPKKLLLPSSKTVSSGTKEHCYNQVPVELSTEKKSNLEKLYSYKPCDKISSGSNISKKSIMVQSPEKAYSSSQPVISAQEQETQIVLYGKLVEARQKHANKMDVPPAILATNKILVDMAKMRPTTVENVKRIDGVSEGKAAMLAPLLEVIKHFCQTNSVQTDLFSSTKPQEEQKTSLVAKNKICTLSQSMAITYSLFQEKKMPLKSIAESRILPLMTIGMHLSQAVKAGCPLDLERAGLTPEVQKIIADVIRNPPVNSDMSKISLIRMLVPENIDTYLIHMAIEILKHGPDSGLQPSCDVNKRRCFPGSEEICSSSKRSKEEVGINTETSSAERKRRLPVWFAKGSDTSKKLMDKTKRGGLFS

- stoichiometry N: 6
Substance: WRN_(235–526) (domain or fragment)
